The source of these data is patent publication US10138280B2, “Polypeptides targeting glycosylated MUC2 proteins, methods of synthesis, their nucleic acids and uses thereof” (INSTITUT PASTEUR, priority 2011, dated 2018).

The target in the assay is T1, human colonic mucus (Homo sapiens, UniProt Q02817).
T1 construct: Segments of human colon (ascending, descending and sigmoid colon) were obtained from fully informed patients undergoing surgery; from tissue; host or cells: healthy human colon segments (live explants, mucus collected from them, Carnoy- or formol-fixed sections)
Briefly: Staining of human colon explants, two-photons microscopy. Here is the method:
FIGS. 3A-3B. Cy5-MUB70 colonic mucus binding property. (FIG. 3A) HT-29 MTX living cells were incubated for 2 h with Cy5-MUB70 in a serum-free media. The resulting fluorescent signal (red) was visualized at the surface of the cell layer using an epifluorescent microscope. Z-projection, performed using ImageJ software, allowed 3D localization of Cy5-MUB70 fluorescence signal in the mucus layer. Bar is 10 μm (FIG. 3B) MPE and SHG imaging of the binding of Cy5-MUB70 to the human colonic mucus. […] Human tissue autofluorescence is detected in the same red channel as Cy5.
FIGS. 8A-8D. (FIG. 8A) Cell toxicity of Cy5-MUB70 tested on HT-29-MTX and Hela epithelial cells. Cell survival was assessed using Sytoxgreen dye on cultures exposed to 1 μg/mL Cy5-MUB70 from 0 to 10 h, as indicated. […] Resulting fluorescent staining was assessed using a two-photons microscope (see Methods). Z-projection, performed using ImageJ software, allows 3D localization of Cy5-MUB70 fluorescence signal. […] Human tissue autofluorescence is detected in the same red channel as Cy5. […]
Two-photons microscopy imaging of live healthy human colonic segment was performed using a commercial laser-scanning microscope (LSM710, Meta, Zeiss, Germany). Tissue autofluorescence and Cy5-MUB70 (1 μg·ml^−1) were detected using multiphoton excitation (MPE, red) and collagen was detected using second harmonic generation (SHG, green). […]

B1: Cy5-MUB70: Cy5-labelled MUB70 polypeptide, labelled via Cy5 maleimide on N-terminal cysteine (conjugate)
peptide: CVHVQYIDGETDQMLRQDDLDGYTDETIPYSTAEGIKKFEGDGYELFKDNFPAGEKFDNDDTNDQFYTVIF
Take B1: for the setting “1 mm thick mucus layer, human colon explant”, the “incubation time after which probe is widely detected in mucus layer” value amounted to 90 min. In addition, where the note is “ex vivo, 1 μg/mL, mucus width around 1000 μm, epithelium and lamina propria unstained”, the “mucus layer staining on human colon explants” value is “stained heterogeneously on the whole width”.
